Data on 15 sequences can be found in the DeepSol protein solubility set.

The nature of the data set: soluble on expression in E. coli; label from the status in PepcDB or PDB records.
For the sequence “MVNYKEKLDEAIHLTQQKGFEQTRAEWLMLDVFQWTRTDFVVHMHDDMPKAMIMKFDLALQRMLLGEPIQYIVGFASFYGRTFDVNSNCLIPRPETEEVMLHFLQQLEDDATIVDIGTGSGVLAITLKCEKPDLNVIATDISLEAMNMARNNAEKHQSQIQFLTGDALKPLINEGIKLNGLISNPPYIDEKDMVTMSPTVTRFEPHQALFADNHGYAIYESIIEDLPHVMEKGSPVVFEIGYNQGEALKSIILNKFPDKKIDIIKDINGHDRIVSFKW”, the “soluble on expression in E. coli” value is recorded as “not soluble”. To “MVPHDKDKDNPSELIRGKDVAAFGLWSLPSFDEPRDEPAVAAPQVPAVAEPAPAPPAVEEVELETVKPPTLEEIEAIRQDAYNEGFATGERDGFHAGQLKARQEAEEALKERLQSLERLMTQLLEPIAEQDALIEQGMVNLVNHVARQVIQRELHMDSSHVRQVLREALKLLPMGAANIRIHVNPQDFERVKALRERHEESWRILEDDSLLPGGCRIETEHSRIDATIETRLAQAVKQLFEQQREQATHPLASDIRIDLDAPGDVDAP” belongs “not soluble”; to “MVPKTATSTETKTITRIIHYVDKVTNQNVKEDVVQPVTLSRTKTENKVTGVVTYGEWTTGNWDEVISGKIDKYKDPDIPTVESQEVTSDSSDKEITVRYDRLSTPEKPIPQPNPEHPSVPTPNPELPNQETPTPDKPTPEPGTPKTETPVNPDPEVPTYETGKREELPNTGTEANATLASAGIMTLLAGLGLGFFKKKEDEKLEHHHHHH”, “soluble”; to “MVPNDVFQKLLYDLFCMWHGVQRHYDPPIPDSEEQRMQKVKNLICKLLTEIDGRVNRIKQNNNHQRGQDFYEEWTMLTWNVLCITNRLQNSLSQVVVSNEDKMIYSRLNQALVELVNYSRDFLPFPSTNEMDPEYVMLRDKMNQTMMSLHGLYRQMNSAMYQTPDDVENFRIHLQTFGDDILVPCLEQYKTFCNKNCMALWQQVRLVQVERMRDQVKDQGCSIENLVSFYSNMTYVLAVLGARLQGFRYDLTVNKKFFNFDPVVHMSEAVFAALELLMSNCVLATEPSTSAILVTNNLFAMNCGALARGVVFKDFEIQVVSEETAEHIQSEMSRQRLLQHPAPIGNVPSAALLAMKPTTGTKRSNAASNSDSANNTAHKKSDVNSKESVIIYPVYNSKNRYWAATYPHLLCTTRQKGRQSIHSSYQDLSPSGTNSSASNDKNGSGKRPIFYFHIKATMFSPSGRFATAHTLSLPFTIATRRNQDCQVQRMMSSYTATIFWLYGCNTQDGLLLQWIDGGMHWDHFKHLFKQHFKLLKYKLQCPDCCSGQDGARVNGVQQIVTFKNVLCPHLRYECNSTNVRFSVWRGMLELLQIFHDTRNNVRKLWEMGFLMGFMEFEEVDNMLEKHKSALIMRLSFVTGGTICFTVKSLAHTLDPRSSRPIHLEPLDLKRLQQKCLKDYLRDIADAEKVKYILTANEEVINIESLLESLKELGVKPENPSESREISSNITHMGDIDTMQHIKFTAMRIAVVTCKVKPPSADQEENDANGLNRLQATLGTRDDDFLRDFVQLANAYGKSKQDLYEALDFINDQYQPGPIRKTSSIYDSSHHIPLAPAPIARNMGPTMISPPPAKVRPPAVDTYPRSSQFELVRSDSDHLPPSNTMMRVSCSPPKPPSQLPSPNQTTIPHMYNNGIPMIYEHHQQQRFDY”, “not soluble”. In the case of “MVPTPKPVVDRMLELADVDETDVLYDLGSGDGRIVIRAARTHGARGVGIEIDPDLVKKARKNAKEAGVADLVEFRQGDLFEADISEATVVTLYLLPSVNQKLRPILFEQLSPGTPVVSHDFDMGRWAPDRTVDLEGDTVYRWTIPLEHHHHHH”, the “soluble on expression in E. coli” value is given as “not soluble”. Turning to “MVQEIIVDSGDIEFLTTPKEYKQQLLSLIECARQRIFITALYLQDDEAGREILHALYQAKANFPTIEINIFVDFNRGQRGLIGEKASLGNRALYLKLAHEYPHTVNIYGVAVKRKEVFGVLHLKGMVFDEKLFYTGASINDIYLHQGERLEHHHHHH”, the “soluble on expression in E. coli” value was “not soluble”.

For “MVQHLTAEEIIQYISDAKKSTPIKVYLNGNFEGITYPESFKVFGSEQSKVIFCEADDWKPFYEAYGSQFEDIEIEMDRRNSAIPLKDLTNTNARIEPGAFIREQAIIEDGAVVMMGATINIGAVVGEGTMIDMNATLGGRATTGKNVHVGAGAVLAGVIEPPSASPVIIEDDVLIGANAVILEGVRVGKGAIVAAGAIVTQDVPAGAVVAGTPAKVIKQASEVQDTKKEIVAALRKLND”, the “soluble on expression in E. coli” value was “not soluble”.

With “MVQLNGKVAIVTGGAKGIGKAITVALAQEGAKVVINYNSSKEAAENLVNELGKEGHDVYAVQADVSKVEDANRLVEEAVNHFGKVDILVNNAGITRDRTFKKLNREDWERVIDVNLSSVFNTTSAVLPYITEAEEGRIISISSIIGQAGGFGQTNYSAAKAGMLGFTKSLALELAKTNVTVNAICPGFIDTEMVAEVPEEVRQKIVAKIPKKRFGQADEIAKGVVYLCRDGAYITGQQLNINGGLYM”, the “soluble on expression in E. coli” value is listed as “not soluble”. In the case of “MVQSSSVLREPSMDEILTSIREIIEENAVHPDYFSNEGAAGNSSRENLEIPSEGVYDTSLSVDDAMKALADRIGLSSENHDFSLTKDKESIEAENNTVGVDMQKMKRSSEEQSSVHRTQEHNKPFSQSENVIAGHVELSAYCISSAEKIAKDVLRPAIAEWLQHKLPVLLEDILREEIVRAIKKSS”, the “soluble on expression in E. coli” value is “not soluble”. To “MVRIDAKGLHYKKLNDLIWEAVENGEEEIVLDNVCGQRYIGAGIRKKVKIEINGVPGNDLGVFMDGPEIIVNGNAQDGVGNTMNAGKIVVHGHAGDIIGYAMRGGHIYIKRNAGYRVGIHMKAYKENYPVVVIGGFARDFLGEYMAGGLLIVLGLEKDEDGNIAGNYVGTGMHGGEIFLRGTVEEHKLGKEVKIFQPTEEDINRIKPYVEEFCRLFDYDSEEILNEEFIILKPYTHRPYGRLYAY” belongs “not soluble”; to “MVRMALEGMSKRKRKRSVQEGENPDDGVRGSPPEDYRLGQVASSLFRGEHHSRGGTGRLASLFSSLEPQIQPVYVPVPKQTIKKTKRNEEEESTSQIERPLSQEPAKKVKAKKKHTNAEKKLADRESALASADLEEEIHQKQGQKRKNSQPGVKVADRKILDDTEDTVVSQRKKIQINQEEERLKNERTVFVGNLPVTCNKKKLKSFFKEYGQIESVRFRSLVCFIPPLEHHHHHH”, “not soluble”. With “MVRQPAVAGQFYTDDPRRLREELGHLIRPVPAPRRVTGVIAPHAGYMYSGAIAGAVYGSIVIPRTVVILGPNHHGLGAAASLYPDGTWLSPLGEVPIEQRLSSLVLEHVPQAEPDVIAHRFEHSLEVQVPFLRYLNSDVAIVPMCLGGGGYGWCRQVGEGLARAIAAYGEEVLIVASSDMTHYESAESARLKDEAALSCVLALDAEGLLKVCRQRGITMCGVIPSTVMLVAARELGASRAELIRYGTSGDVTGDNRQVVAYAAVAVYLEHHHHHH” the entry was “not soluble”; with “MVRTVKSYNGEADDLAGQIHTLPAVWVTYGGSKVEPASTGGVCGRYQDTAEFVVMVAARNLRNEQAQRQGGIDSREIGSNDLIRAVRRLLDGQRLGFADSRGLVPKAVRAIANHVLVQNAAVSIYAVEYAIRFNTCGLENDRYPERTDNPDDPNHIFTKYQGTLSEPWPDFEGLDGKIYDPQSADEIPVNLTLKDKQ”, “not soluble”. To “MVSATYSVVYETGKKLNSGFDNWGWDSKMSFKDNSLVLTADPDEYGAISLKNLNSNYYGKGGCIYLQVKTETEGLVKVQGVRGYDETEAFNVGSFRSSSDFTEYKFEVDDEYQFDRIIVQDGPASNIPIYMRYIIYSTGSCDDHILEHHHHHH” belongs “soluble”; to “MVSIIIPIYNVQDYINDCLYSVYTQTYSEIEVILVNDCTPDNSMLIAHSNIEKLKKRFNVKIIDHKSNKGLSAARNSGVKEATGEWVYFLDSDDEITPDCIECFVRLAERYLSVDFIVGGIRVIGRNISYRLTTSEYVIGNDNILKCYISGMWYEMAWNKLIRKEYFVSNNLWFKEGLLHEDQLFSYQLATTALTMATVNKPTYIYKMRMSGAITSSNGRKNFDSFICILEYMVYSVMQKYSTSSVTLEYAQIIRFSYSILLSLYGKHNLTEMEVVNYELKVDRICRIVTFYKCKLPVPIQIKLTIIKLPQTMRKVLLKWHNKKIQKKLEHHHHHH”, “soluble”.
